To fix the notation:
B1: NLV2 TCR alpha chain (CDR3α only) (parent)
chain: AGPMKTSYDKVI

Variants of B1 are the subject of the first assay. In words: T-Switch: Jurkat TCRβ−/− cells expressing a CDR3 saturation-mutagenesis library, stained with two peptide-HLA-A*02:01 tetramers (original and novel peptide) plus anti-CD3, FACS-sorted into four gates, gDNA sequenced. Conditions: with both tetramers (double-negative gate, binds neither): HLA-A*02:01 with … and with …, tetramers 1 µg/mL, 30 min on ice, SP, DP and SW gates expanded about 10 days between rounds ('two to three rounds of selection' in the Methods), gate DN: OPPOSITE: higher = more of the variant in the gate that binds neither peptide = LESS binding (or no expression; inferred). Fold enrichment of the CDR3 variant in one FACS gate of a two-tetram, unresolved parent, parent is a CDR3 fragment, scale: fold enrichment, numbering: sequential-on-construct, sequence starts at 1.
[…] (CDR3 as printed); D9H derived by comparing it with the table's wild-type CDR3 AGPMKTSYDKVI: the enrichment is 1.29.

Consider […] (CDR3 as printed); P3D derived by comparing it with the table's wild-type CDR3 AGPMKTSYDKVI, for which the enrichment was determined as 1.14.

For […] (CDR3 as printed); A1K derived by comparing it with the table's wild-type CDR3 AGPMKTSYDKVI, the enrichment stood at 1.

For […] (CDR3 as printed); A1C derived by comparing it with the table's wild-type CDR3 AGPMKTSYDKVI, the enrichment amounted to 0.8.

[…] (CDR3 as printed); A1D derived by comparing it with the table's wild-type CDR3 AGPMKTSYDKVI: the enrichment stood at 0.746.

As for […] (CDR3 as printed); S7I derived by comparing it with the table's wild-type CDR3 AGPMKTSYDKVI, the enrichment is 1.04.

For […] (CDR3 as printed); I12P derived by comparing it with the table's wild-type CDR3 AGPMKTSYDKVI, the enrichment worked out at 1.18.

Take […] (CDR3 as printed); S7C derived by comparing it with the table's wild-type CDR3 AGPMKTSYDKVI: the enrichment was 0.877.

In the case of […] (CDR3 as printed); T6H derived by comparing it with the table's wild-type CDR3 AGPMKTSYDKVI, the enrichment is 1.22.

With […] (CDR3 as printed); D9K derived by comparing it with the table's wild-type CDR3 AGPMKTSYDKVI, the enrichment amounted to 0.961.

On to […] (CDR3 as printed); I12Q derived by comparing it with the table's wild-type CDR3 AGPMKTSYDKVI, for which the enrichment is 1.17.

As to […] (CDR3 as printed); M4W derived by comparing it with the table's wild-type CDR3 AGPMKTSYDKVI, the enrichment was 0.861.

As for […] (CDR3 as printed); K5V derived by comparing it with the table's wild-type CDR3 AGPMKTSYDKVI, the enrichment is 0.87.

Take […] (CDR3 as printed); V11E derived by comparing it with the table's wild-type CDR3 AGPMKTSYDKVI: the enrichment turned out to be 1.34.

For the variant […] (CDR3 as printed); P3R derived by comparing it with the table's wild-type CDR3 AGPMKTSYDKVI, the enrichment is 1.32.

For […] (CDR3 as printed); G2N derived by comparing it with the table's wild-type CDR3 AGPMKTSYDKVI, the enrichment is 0.848.

Consider […] (CDR3 as printed); S7G derived by comparing it with the table's wild-type CDR3 AGPMKTSYDKVI, for which the enrichment was 0.911.

[…] (CDR3 as printed); M4D derived by comparing it with the table's wild-type CDR3 AGPMKTSYDKVI: the enrichment was found to be 0.825.

[…] (CDR3 as printed); D9Y derived by comparing it with the table's wild-type CDR3 AGPMKTSYDKVI: the enrichment worked out at 1.09.

As to […] (CDR3 as printed); K10M derived by comparing it with the table's wild-type CDR3 AGPMKTSYDKVI, the enrichment came out at 1.08.

For the variant […] (CDR3 as printed); D9A derived by comparing it with the table's wild-type CDR3 AGPMKTSYDKVI, the enrichment is 1.01.

Take […] (CDR3 as printed); G2A derived by comparing it with the table's wild-type CDR3 AGPMKTSYDKVI: the enrichment turned out to be 0.977.

[…] (CDR3 as printed); T6C derived by comparing it with the table's wild-type CDR3 AGPMKTSYDKVI: the enrichment turned out to be 0.924.

As for […] (CDR3 as printed); Y8R derived by comparing it with the table's wild-type CDR3 AGPMKTSYDKVI, the enrichment turned out to be 1.17.

As to […] (CDR3 as printed); M4E derived by comparing it with the table's wild-type CDR3 AGPMKTSYDKVI, the enrichment was found to be 0.637.

Staying with this assay, now noted: with both tetramers (double-positive gate): HLA-A*02:01 with … and with …, tetramers 1 µg/mL, 30 min on ice, SP, DP and SW gates expanded about 10 days between rounds ('two to three rounds of selection' in the Methods), gate DP: higher = more of the variant in the gate that binds both peptides. Fold enrichment of the CDR3 variant in one FACS gate of a two-tetramer stain. SP/DP/SW gates were expanded and re-sorted bef, unresolved parent, parent is a CDR3 fragment, scale: fold enrichment, numbering: sequential-on-construct, sequence starts at 1.
[…] (CDR3 as printed); D9H derived by comparing it with the table's wild-type CDR3 AGPMKTSYDKVI: the enrichment amounted to 0.

As to […] (CDR3 as printed); P3D derived by comparing it with the table's wild-type CDR3 AGPMKTSYDKVI, the enrichment was 0.

As for […] (CDR3 as printed); A1K derived by comparing it with the table's wild-type CDR3 AGPMKTSYDKVI, the enrichment was 0.

Turning to […] (CDR3 as printed); A1C derived by comparing it with the table's wild-type CDR3 AGPMKTSYDKVI, the enrichment amounted to 0.

As to […] (CDR3 as printed); A1D derived by comparing it with the table's wild-type CDR3 AGPMKTSYDKVI, the enrichment stood at 0.

As to […] (CDR3 as printed); S7I derived by comparing it with the table's wild-type CDR3 AGPMKTSYDKVI, the enrichment amounted to 0.

Regarding […] (CDR3 as printed); I12P derived by comparing it with the table's wild-type CDR3 AGPMKTSYDKVI, the enrichment was determined as 0.

Turning to […] (CDR3 as printed); S7C derived by comparing it with the table's wild-type CDR3 AGPMKTSYDKVI, the enrichment stood at 0.

As for […] (CDR3 as printed); T6H derived by comparing it with the table's wild-type CDR3 AGPMKTSYDKVI, the enrichment was 0.

On to […] (CDR3 as printed); D9K derived by comparing it with the table's wild-type CDR3 AGPMKTSYDKVI, for which the enrichment is 0.

As for […] (CDR3 as printed); I12Q derived by comparing it with the table's wild-type CDR3 AGPMKTSYDKVI, the enrichment worked out at 0.

[…] (CDR3 as printed); M4W derived by comparing it with the table's wild-type CDR3 AGPMKTSYDKVI: the enrichment came out at 0.

As for […] (CDR3 as printed); K5V derived by comparing it with the table's wild-type CDR3 AGPMKTSYDKVI, the enrichment amounted to 0.

With […] (CDR3 as printed); V11E derived by comparing it with the table's wild-type CDR3 AGPMKTSYDKVI, the enrichment was determined as 0.

In the case of […] (CDR3 as printed); P3R derived by comparing it with the table's wild-type CDR3 AGPMKTSYDKVI, the enrichment came out at 0.

Take […] (CDR3 as printed); G2N derived by comparing it with the table's wild-type CDR3 AGPMKTSYDKVI: the enrichment was 0.

For […] (CDR3 as printed); S7G derived by comparing it with the table's wild-type CDR3 AGPMKTSYDKVI, the enrichment turned out to be 0.

As to […] (CDR3 as printed); M4D derived by comparing it with the table's wild-type CDR3 AGPMKTSYDKVI, the enrichment came out at 0.

For the variant […] (CDR3 as printed); D9Y derived by comparing it with the table's wild-type CDR3 AGPMKTSYDKVI, the enrichment amounted to 0.

With […] (CDR3 as printed); K10M derived by comparing it with the table's wild-type CDR3 AGPMKTSYDKVI, the enrichment came to 0.

As to […] (CDR3 as printed); D9A derived by comparing it with the table's wild-type CDR3 AGPMKTSYDKVI, the enrichment was 0.

In the case of […] (CDR3 as printed); G2A derived by comparing it with the table's wild-type CDR3 AGPMKTSYDKVI, the enrichment worked out at 0.

On to […] (CDR3 as printed); T6C derived by comparing it with the table's wild-type CDR3 AGPMKTSYDKVI, for which the enrichment worked out at 0.

Consider […] (CDR3 as printed); Y8R derived by comparing it with the table's wild-type CDR3 AGPMKTSYDKVI, for which the enrichment was 0.

For […] (CDR3 as printed); M4E derived by comparing it with the table's wild-type CDR3 AGPMKTSYDKVI, the enrichment came out at 0.

For the origin of these results see article PMC13397619.
